Data published in publication PMC10745693.
Read-outs that look alike come from different tables or passages of the source.

How the values were obtained:
[1] = biological target: light-harvesting complex II (LHCII) trimer (spinach)
[2] = biological target: light-harvesting complex II (LHCII) trimer (spinach); remark: listed apart in the source

## light-harvesting complex II (LHCII) trimer
[1]
  pairwise LHCII-LHCII interaction energy J: -5.4 kBT
[2]
  pairwise LHCII-LHCII interaction energy J: -7.2 kBT
